B1: Zinc finger and BTB domain-containing protein 49 (Homo sapiens), Q6ZSB9 (parent)
chain: MDPVATHSCHLLQQLHEQRIQGLLCDCMLVVKGVCFKAHKNVLAAFSQYFRSLFQNSSSQKNDVFHLDVKNVSGIGQILDFMYTSHLDLNQDNIQVMLDTAQCLQVQNVLSLCHTFLKSATVVQPPGMPCNSTLSLQSTLTPDATCVISENYPPHLLQECSADAQQNKTLDESHPHASPSVNRHHSAGEISKQAPDTSDGSCTELPFKQPNYYYKLRNFYSKQYHKHAAGPSQERVVEQPFAFSTSTDLTTVESQPCAVSHSECILESPEHLPSNFLAQPVNDSAPHPESDATCQQPVKQMRLKKAIHLKKLNFLKSQKYAEQVSEPKSDDGLTKRLESASKNTLEKASSQSAEEKESEEVVSCENFNCISETERPEDPAALEDQSQTLQSQRQYACELCGKPFKHPSNLELHKRSHTGEKPFECNICGKHFSQAGNLQTHLRRHSGEKPYICEICGKRFAASGDVQRHIIIHSGEKPHLCDICGRGFSNFSNLKEHKKTHTADKVFTCDECGKSFNMQRKLVKHRIRHTGERPYSCSACGKCFGGSGDLRRHVRTHTGEKPYTCEICNKCFTRSAVLRRHKKMHCKAGDESPDVLEELSQAIETSDLEKSQSSDSFSQDTSVTLMPVSVKLPVHPVENSVAEFDSHSGGSYCKLRSMIQPHGVSDQEKLSLDPGKLAKPQMQQTQPQAYAYSDVDTPAGGEPLQADGMAMIRSSLAALDNHGGDPLGSRASSTTYRNSEGQFFSSMTLWGLAMKTLQNENELDQ
partner: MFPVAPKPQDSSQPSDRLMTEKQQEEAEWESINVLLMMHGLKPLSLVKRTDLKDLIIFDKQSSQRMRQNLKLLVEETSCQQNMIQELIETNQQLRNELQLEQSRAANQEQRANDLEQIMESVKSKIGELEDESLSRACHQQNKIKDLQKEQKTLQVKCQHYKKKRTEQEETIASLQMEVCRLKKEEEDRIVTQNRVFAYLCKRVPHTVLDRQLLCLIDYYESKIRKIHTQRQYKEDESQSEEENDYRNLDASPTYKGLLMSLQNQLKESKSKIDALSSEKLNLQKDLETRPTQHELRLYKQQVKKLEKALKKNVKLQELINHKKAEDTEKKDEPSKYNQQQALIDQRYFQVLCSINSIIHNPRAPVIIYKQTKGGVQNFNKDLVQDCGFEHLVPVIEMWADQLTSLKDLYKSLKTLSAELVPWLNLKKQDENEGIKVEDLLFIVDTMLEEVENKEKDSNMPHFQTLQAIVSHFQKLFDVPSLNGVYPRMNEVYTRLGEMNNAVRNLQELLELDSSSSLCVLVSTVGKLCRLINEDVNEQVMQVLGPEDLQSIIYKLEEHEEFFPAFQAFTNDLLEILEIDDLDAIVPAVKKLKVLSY
B2: Angio-associated migratory cell protein (Homo sapiens), Q13685 (parent)
chain: MESESESGAAADTPPLETLSFHGDEEIIEVVELDPGPPDPDDLAQEMEDVDFEEEEEEEGNEEGWVLEPQEGVVGSMEGPDDSEVTFALHSASVFCVSLDPKTNTLAVTGGEDDKAFVWRLSDGELLFECAGHKDSVTCAGFSHDSTLVATGDMSGLLKVWQVDTKEEVWSFEAGDLEWMEWHPRAPVLLAGTADGNTWMWKVPNGDCKTFQGPNCPATCGRVLPDGKRAVVGYEDGTIRIWDLKQGSPIHVLKGTEGHQGPLTCVAANQDGSLILTGSVDCQAKLVSATTGKVVGVFRPETVASQPSLGEGEESESNSVESLGFCSVMPLAAVGYLDGTLAIYDLATQTLRHQCQHQSGIVQLLWEAGTAVVYTCSLDGIVRLWDARTGRLLTDYRGHTAEILDFALSKDASLVVTTSGDHKAKVFCVQRPDR
partner: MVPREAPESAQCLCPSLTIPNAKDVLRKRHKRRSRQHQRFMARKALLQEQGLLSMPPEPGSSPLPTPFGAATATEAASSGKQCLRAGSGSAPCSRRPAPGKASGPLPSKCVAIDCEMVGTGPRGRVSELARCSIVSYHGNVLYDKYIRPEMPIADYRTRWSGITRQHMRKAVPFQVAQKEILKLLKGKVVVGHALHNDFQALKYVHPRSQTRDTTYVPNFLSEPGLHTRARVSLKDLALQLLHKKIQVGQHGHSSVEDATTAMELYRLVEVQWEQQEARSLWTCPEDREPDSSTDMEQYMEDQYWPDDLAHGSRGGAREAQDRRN
B3: Acetylcholine receptor subunit gamma (Homo sapiens), P07510 (parent)
chain: MHGGQGPLLLLLLLAVCLGAQGRNQEERLLADLMQNYDPNLRPAERDSDVVNVSLKLTLTNLISLNEREEALTTNVWIEMQWCDYRLRWDPRDYEGLWVLRVPSTMVWRPDIVLENNVDGVFEVALYCNVLVSPDGCIYWLPPAIFRSACSISVTYFPFDWQNCSLIFQSQTYSTNEIDLQLSQEDGQTIEWIFIDPEAFTENGEWAIQHRPAKMLLDPAAPAQEAGHQKVVFYLLIQRKPLFYVINIIAPCVLISSVAILIHFLPAKAGGQKCTVAINVLLAQTVFLFLVAKKVPETSQAVPLISKYLTFLLVVTILIVVNAVVVLNVSLRSPHTHSMARGVRKVFLRLLPQLLRMHVRPLAPAAVQDTQSRLQNGSSGWSITTGEEVALCLPRSELLFQQWQRQGLVAAALEKLEKGPELGLSQFCGSLKQAAPAIQACVEACNLIACARHQQSHFDNGNEEWFLVGRVLDRVCFLAMLSLFICGTAGIFLMAHYNRVPALPFPGDPRPYLPSPD

Variants of: B1
Details: with cep70_human CEP70, Q8NHQ1

Question: With D88V as the variant, how does the “effect of a mutation on the interaction” value read?
Answer: Its value is “with no effect”.

Variants of: B2
Details: with aen_human AEN

Question: How did the “effect of a mutation on the interaction” value turn out when I343F was run?
Answer: The value was “with no effect”.

Variants of: B3
Details: with kr108_human KRTAP10-8, P60410
Chain of kr108_human KRTAP10-8, P60410 (P60410 whole entry): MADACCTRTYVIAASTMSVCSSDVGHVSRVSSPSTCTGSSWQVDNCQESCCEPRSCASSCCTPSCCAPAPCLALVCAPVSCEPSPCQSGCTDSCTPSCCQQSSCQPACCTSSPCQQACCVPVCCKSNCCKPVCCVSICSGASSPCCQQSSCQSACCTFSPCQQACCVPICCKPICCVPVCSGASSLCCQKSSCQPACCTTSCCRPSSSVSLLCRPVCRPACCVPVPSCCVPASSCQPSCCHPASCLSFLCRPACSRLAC

Question: Which “effect of a mutation on the interaction” value does the source give for I448T here?
Answer: The value was “with no effect”.

Variants of: B3
Details: with kr103_human KRTAP10-3, P60369
Chain of kr103_human KRTAP10-3, P60369 (P60369 whole entry): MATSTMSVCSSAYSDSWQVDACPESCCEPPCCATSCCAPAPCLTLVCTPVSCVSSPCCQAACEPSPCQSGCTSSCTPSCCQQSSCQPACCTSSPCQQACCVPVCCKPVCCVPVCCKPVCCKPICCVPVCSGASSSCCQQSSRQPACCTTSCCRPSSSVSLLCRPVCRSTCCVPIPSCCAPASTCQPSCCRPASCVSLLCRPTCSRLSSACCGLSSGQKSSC

Question: How did the “effect of a mutation on the interaction” value turn out when I448T was run?
Answer: Its value is “with no effect”.

Variants of: B3
Details: with k1h1_human KRT31, Q15323
Chain of k1h1_human KRT31, Q15323 (Q15323 whole entry): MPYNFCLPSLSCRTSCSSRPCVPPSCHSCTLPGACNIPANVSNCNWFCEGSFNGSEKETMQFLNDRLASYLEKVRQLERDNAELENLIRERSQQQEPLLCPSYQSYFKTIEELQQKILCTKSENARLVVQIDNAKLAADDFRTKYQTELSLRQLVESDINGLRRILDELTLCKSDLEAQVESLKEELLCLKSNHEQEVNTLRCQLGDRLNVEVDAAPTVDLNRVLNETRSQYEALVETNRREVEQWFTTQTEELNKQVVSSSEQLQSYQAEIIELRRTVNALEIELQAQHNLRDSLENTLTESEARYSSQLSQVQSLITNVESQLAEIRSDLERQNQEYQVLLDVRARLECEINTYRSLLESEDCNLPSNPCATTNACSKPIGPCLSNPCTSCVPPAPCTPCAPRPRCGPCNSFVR

Question: For I448T, which “effect of a mutation on the interaction” value is on record?
Answer: Its value is “with no effect”.

Variants of: B3
Details: with nt2na_human NOTCH2NLA

Question: With I448T as the variant, how does the “effect of a mutation on the interaction” value read?
Answer: The value was “with no effect”.
